Measurements as given in the supplement of paper PMC7125110.
± gives the standard error. This sample holds only a part of the variants without activity.

B1: glmS ribozyme (parent)
chain: AUAAAAGCGCCAGAACUACAGAAAUGUAGUUGACGAGGAGGAGGUUUAUCGAAUUUUCGGCGGAUGCCUCCAAA

Tests used:
Conditions in all cases: with glucosamine-6-phosphate
glucosamine-6-phosphate [1] = variants of: B1; experiment: self-cleavage kobs at 160 uM GlcN6P; higher = faster cleavage; RNA array
In short: (§1)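 Glucosamine-6-phosphate in HEPES/KCl/Mg(OAc)2 buffer, at 40 μM to 10 mM, was flowed over barcoded ribozyme variants transcribed in situ by E. coli RNA polymerase on sequenced MiSeq chips. Tracking was through a hybridised Cy3 probe at 37 °C. kobs, kcat and KM came from exponential decay fits and weighted Michaelis–Menten fits of normalised per-tile medians.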

glucosamine-6-phosphate [2] = variants of: B1; experiment: self-cleavage kobs at 10000 uM GlcN6P; higher = faster cleavage; RNA array
In short: as §1

glucosamine-6-phosphate [3] = variants of: B1; experiment: self-cleavage kobs at 640 uM GlcN6P; higher = faster cleavage; RNA array
In short: as §1

glucosamine-6-phosphate [4] = variants of: B1; experiment: self-cleavage kobs at 2500 uM GlcN6P; higher = faster cleavage; RNA array
In short: as §1

Variant	self-cleavage kobs at 160 uM GlcN6P (glucosamine-6-phosphate [1])	self-cleavage kobs at 10000 uM GlcN6P (glucosamine-6-phosphate [2])	self-cleavage kobs at 640 uM GlcN6P (glucosamine-6-phosphate [3])	self-cleavage kobs at 2500 uM GlcN6P (glucosamine-6-phosphate [4])
A6C C11U C16U U30G A39U G41U U54G U69G	< 1e-05 s⁻¹			
U30C U46G U54A	< 1e-05 s⁻¹			
C11A A14C U31G U65G	< 1e-05 s⁻¹	2.62e-05 ± 1.2e-05 s⁻¹		
G37C A39G G44A	< 1e-05 s⁻¹		< 1e-05 s⁻¹	
C11U U56G	4.58e-05 ± 1.6e-05 s⁻¹	0.00158 ± 0.00036 s⁻¹	0.000297 ± 5.6e-05 s⁻¹	0.000254 ± 9.7e-05 s⁻¹
C10G C11A C16U G38U	< 1e-05 s⁻¹	< 1e-05 s⁻¹	< 1e-05 s⁻¹	
G9A G29U A36C	< 1e-05 s⁻¹		< 1e-05 s⁻¹	< 1e-05 s⁻¹
A15U C34A A64G	< 1e-05 s⁻¹			< 1e-05 s⁻¹
C8G G13C U30G C68G C70G	0.000998 ± 0.00044 s⁻¹			
G7C U55A A64U	< 1e-05 s⁻¹		< 1e-05 s⁻¹	< 1e-05 s⁻¹
C8U A15U	< 1e-05 s⁻¹		< 1e-05 s⁻¹	< 1e-05 s⁻¹
G35U A42C	< 1e-05 s⁻¹		< 1e-05 s⁻¹	< 1e-05 s⁻¹
G9U G40A	< 1e-05 s⁻¹	< 1e-05 s⁻¹	< 1e-05 s⁻¹	< 1e-05 s⁻¹
C16U G32U C70A	< 1e-05 s⁻¹			
A15C C16A C67U	4.39e-05 ± 2.1e-05 s⁻¹		0.000115 ± 2.9e-05 s⁻¹	0.000111 ± 4e-05 s⁻¹
G29U G32A G37U G66A	< 1e-05 s⁻¹		< 1e-05 s⁻¹	< 1e-05 s⁻¹
C8U G66U	< 1e-05 s⁻¹	< 1e-05 s⁻¹	< 1e-05 s⁻¹	
G38U G41C G59C	< 1e-05 s⁻¹		< 1e-05 s⁻¹	
A15U G60U C61U	< 1e-05 s⁻¹			
U56A G60C	< 1e-05 s⁻¹		< 1e-05 s⁻¹	< 1e-05 s⁻¹
U30G U54G U56G	0.00021 ± 5.7e-05 s⁻¹		0.000994 ± 0.00019 s⁻¹	0.00255 ± 0.00053 s⁻¹
A36G A48G	< 1e-05 s⁻¹	< 1e-05 s⁻¹	< 1e-05 s⁻¹	< 1e-05 s⁻¹
G7A G59C	< 1e-05 s⁻¹		< 1e-05 s⁻¹	
A36G A64U C71U	< 1e-05 s⁻¹		< 1e-05 s⁻¹	< 1e-05 s⁻¹
G38A G60U	< 1e-05 s⁻¹	< 1e-05 s⁻¹	< 1e-05 s⁻¹	< 1e-05 s⁻¹
C58U C61G G66A C67A	5.89e-05 ± 2e-05 s⁻¹		0.000108 ± 3.7e-05 s⁻¹	

Variant	self-cleavage kobs at 160 uM GlcN6P (glucosamine-6-phosphate [1])	self-cleavage kobs at 10000 uM GlcN6P (glucosamine-6-phosphate [2])	self-cleavage kobs at 640 uM GlcN6P (glucosamine-6-phosphate [3])	self-cleavage kobs at 2500 uM GlcN6P (glucosamine-6-phosphate [4])
U45A A53G C71U	0.00381 ± 0.0013 s⁻¹		0.00623 ± 0.0015 s⁻¹	0.00735 ± 0.0025 s⁻¹
A14C C16A U31C G35C U55G	< 1e-05 s⁻¹	< 1e-05 s⁻¹		< 1e-05 s⁻¹
C16G G41U U54A	< 1e-05 s⁻¹			
C11A A39C U49C	< 1e-05 s⁻¹			< 1e-05 s⁻¹
A12U A15G G41A	0.000272 ± 4.5e-05 s⁻¹		0.00098 ± 0.00018 s⁻¹	
G13U A42C U54A U55G	< 1e-05 s⁻¹		< 1e-05 s⁻¹	< 1e-05 s⁻¹
G43C U55A A64U	< 1e-05 s⁻¹			
A33C G59C C61G A64G	< 1e-05 s⁻¹		< 1e-05 s⁻¹	
G32U G43U	< 1e-05 s⁻¹			< 1e-05 s⁻¹
G9U C67A	< 1e-05 s⁻¹	< 1e-05 s⁻¹	< 1e-05 s⁻¹	< 1e-05 s⁻¹
A6G G44A C71A	< 1e-05 s⁻¹	< 1e-05 s⁻¹	< 1e-05 s⁻¹	< 1e-05 s⁻¹
U31A G51A	< 1e-05 s⁻¹	< 1e-05 s⁻¹	< 1e-05 s⁻¹	< 1e-05 s⁻¹
G29C U56G G66C	< 1e-05 s⁻¹		< 1e-05 s⁻¹	
G9C A36C	< 1e-05 s⁻¹	< 1e-05 s⁻¹	< 1e-05 s⁻¹	< 1e-05 s⁻¹
U30A A48C C67G	< 1e-05 s⁻¹			
G7A A48G	< 1e-05 s⁻¹	< 1e-05 s⁻¹		< 1e-05 s⁻¹
A15G U31C U45C U49A	< 1e-05 s⁻¹		< 1e-05 s⁻¹	< 1e-05 s⁻¹
C34A A42U	< 1e-05 s⁻¹	< 1e-05 s⁻¹	< 1e-05 s⁻¹	< 1e-05 s⁻¹
C10G G29A G62U C71U	< 1e-05 s⁻¹		< 1e-05 s⁻¹	< 1e-05 s⁻¹
G7A U30C G60U A64C	< 1e-05 s⁻¹			< 1e-05 s⁻¹
G9C A12C U31C	< 1e-05 s⁻¹		< 1e-05 s⁻¹	< 1e-05 s⁻¹
G7A C71G	< 1e-05 s⁻¹			
A36C G38C U56C	< 1e-05 s⁻¹			< 1e-05 s⁻¹
A15G C16G U55A	0.000205 ± 6e-05 s⁻¹		0.000405 ± 0.00011 s⁻¹	0.00143 ± 0.0004 s⁻¹
A6C G35C U46A C61A	< 1e-05 s⁻¹		< 1e-05 s⁻¹	< 1e-05 s⁻¹
U46G C58G U69G	6.07e-05 ± 2.5e-05 s⁻¹			

Variant	self-cleavage kobs at 160 uM GlcN6P (glucosamine-6-phosphate [1])	self-cleavage kobs at 10000 uM GlcN6P (glucosamine-6-phosphate [2])	self-cleavage kobs at 640 uM GlcN6P (glucosamine-6-phosphate [3])	self-cleavage kobs at 2500 uM GlcN6P (glucosamine-6-phosphate [4])
G9C C50G	0.00045 ± 0.00018 s⁻¹			
C58U G63A	< 1e-05 s⁻¹	< 1e-05 s⁻¹		
C16U G40C U47G	6.77e-05 ± 2.5e-05 s⁻¹		0.000145 ± 2e-05 s⁻¹	0.000389 ± 9.2e-05 s⁻¹
G44A U49A	< 1e-05 s⁻¹	< 1e-05 s⁻¹	< 1e-05 s⁻¹	< 1e-05 s⁻¹
G37C U47C A52U	< 1e-05 s⁻¹			
C16U G40A U46C	0.000137 ± 3.1e-05 s⁻¹			0.000815 ± 0.00018 s⁻¹
A15U U55G A64G	0.000233 ± 5.2e-05 s⁻¹			
G29A A36U U55G	< 1e-05 s⁻¹		< 1e-05 s⁻¹	
G38C U46G A64U	< 1e-05 s⁻¹		< 1e-05 s⁻¹	
C16U A42G A48U G66U	< 1e-05 s⁻¹		< 1e-05 s⁻¹	
G35C A39U U49G C50G	< 1e-05 s⁻¹			< 1e-05 s⁻¹
C8G G59A C70G	< 1e-05 s⁻¹			
A33G U47G A48C G51C	< 1e-05 s⁻¹			
G9A A36C G41U A64G C70U	< 1e-05 s⁻¹	< 1e-05 s⁻¹	< 1e-05 s⁻¹	< 1e-05 s⁻¹
C10A C68G	0.000416 ± 0.00019 s⁻¹		6.2e-05 ± 2.8e-05 s⁻¹	6.4e-05 ± 1.8e-05 s⁻¹
C16G A52C	< 1e-05 s⁻¹			< 1e-05 s⁻¹
A23C A52G U69A	6.42e-05 ± 2.4e-05 s⁻¹		9.59e-05 ± 2.5e-05 s⁻¹	
G51C U56C	< 1e-05 s⁻¹	< 1e-05 s⁻¹	< 1e-05 s⁻¹	< 1e-05 s⁻¹
U2C G9U C58U	< 1e-05 s⁻¹	< 1e-05 s⁻¹		
G7U U47A A52C A53U U55G C61U	< 1e-05 s⁻¹		< 1e-05 s⁻¹	< 1e-05 s⁻¹
G59A G62U	< 1e-05 s⁻¹			< 1e-05 s⁻¹
C16U G37A G40C G43A	< 1e-05 s⁻¹	< 1e-05 s⁻¹	< 1e-05 s⁻¹	< 1e-05 s⁻¹
C50G G59U	7.49e-05 ± 1.3e-05 s⁻¹		0.000241 ± 8.6e-05 s⁻¹	0.000355 ± 0.0001 s⁻¹
A6U G32C G62U	< 1e-05 s⁻¹			
C11U G32U A42U	< 1e-05 s⁻¹			< 1e-05 s⁻¹
C11G U47A	< 1e-05 s⁻¹	< 1e-05 s⁻¹	< 1e-05 s⁻¹	

Variant	self-cleavage kobs at 160 uM GlcN6P (glucosamine-6-phosphate [1])	self-cleavage kobs at 10000 uM GlcN6P (glucosamine-6-phosphate [2])	self-cleavage kobs at 640 uM GlcN6P (glucosamine-6-phosphate [3])	self-cleavage kobs at 2500 uM GlcN6P (glucosamine-6-phosphate [4])
C10U A33G G51A A64C	< 1e-05 s⁻¹			
A12G U46C A48U	< 1e-05 s⁻¹			
C11A G13U U47G A52C A53C	< 1e-05 s⁻¹			
G43A G60C	< 1e-05 s⁻¹	< 1e-05 s⁻¹	< 1e-05 s⁻¹	< 1e-05 s⁻¹
G32U G63C	< 1e-05 s⁻¹	< 1e-05 s⁻¹	< 1e-05 s⁻¹	
A36C G37A U46A G66U	< 1e-05 s⁻¹		< 1e-05 s⁻¹	< 1e-05 s⁻¹
A12U A14U U45A	0.000413 ± 0.0001 s⁻¹		0.00157 ± 0.00031 s⁻¹	0.00242 ± 0.00082 s⁻¹
G13A U46G A48G G59A	< 1e-05 s⁻¹	< 1e-05 s⁻¹		< 1e-05 s⁻¹
G7U G41U G59U A64G	< 1e-05 s⁻¹	< 1e-05 s⁻¹		< 1e-05 s⁻¹
G35A U49A C67G C68G	0.000246 ± 7.8e-05 s⁻¹		9.7e-05 ± 2.3e-05 s⁻¹	0.000118 ± 3.7e-05 s⁻¹
C16G G43A	< 1e-05 s⁻¹		< 1e-05 s⁻¹	
G38C U54G	< 1e-05 s⁻¹	< 1e-05 s⁻¹	< 1e-05 s⁻¹	
G13A C58A	5.76e-05 ± 2.1e-05 s⁻¹		0.000121 ± 2.5e-05 s⁻¹	0.000307 ± 7.3e-05 s⁻¹
C8A C10U	< 1e-05 s⁻¹		< 1e-05 s⁻¹	
A33C A36G	< 1e-05 s⁻¹	< 1e-05 s⁻¹	< 1e-05 s⁻¹	< 1e-05 s⁻¹
C34G U56C	< 1e-05 s⁻¹			
A12U A15C A42G	0.00123 ± 0.0005 s⁻¹		0.00381 ± 0.0017 s⁻¹	0.0282 ± 0.014 s⁻¹
A15C G32C A48C	< 1e-05 s⁻¹			
A33G C34A U55A C70A	0.00034 ± 0.00013 s⁻¹		9.12e-05 ± 3.4e-05 s⁻¹	
C8U G9C G62A U65G	< 1e-05 s⁻¹			< 1e-05 s⁻¹
A33G A39U A64U C70G	< 1e-05 s⁻¹			< 1e-05 s⁻¹
G35A G62U	< 1e-05 s⁻¹	< 1e-05 s⁻¹		< 1e-05 s⁻¹
U30G G32A A48G G62C	< 1e-05 s⁻¹		< 1e-05 s⁻¹	< 1e-05 s⁻¹
G9U C10G C11U C70U	< 1e-05 s⁻¹			< 1e-05 s⁻¹
